Source: US20090209457A1, “TREATMENT OF ANTI-ERYTHROPOIETIN ANTIBODY-MEDIATED DISORDERS WITH SYNTHETIC PEPTIDE-BASED EPO RECEPTOR AGONISTS” (Affymax, Inc., priority 2008, published 2009)
Bridge positions count the residues as written; N and C are the ends. Square brackets hold non-standard residues; d marks the D form. Ends that are not written are not given here. 1Nal = N[C@@H](Cc1cccc2ccccc12)C(=O)O; Sar = CNCC(=O)O

Experiments:
[1] = test system: human, bone marrow derived CD34+ cells; assay: C/BFU-e assay (erythroid colonies); format: cell-based; settings: Table 6, 14 days
Procedure: EPO-R signaling stimulates the differentiation of bone marrow stem cells into proliferating red blood cell precursors. This assay measures the ability of test peptides to stimulate the proliferation and differentiation of red blood cell precursors from primary human bone marrow pluripotent stem cells.
For this assay, serial dilutions of test peptide are made in IMDM medium (Gibco) supplemented with 10% FBS (Hyclone). These serial dilutions, or positive control EPO peptide, are then added to methylcellulose to give a final volume of 1.5 mL. The methylcellulose and peptide mixture is then vortexed thoroughly. Aliquots (100,000 cells/mL) of human, bone marrow derived CD34+ cells (Poietics/Cambrex) are thawed. The thawed cells are gently added to 0.1 mL of 1 mg/ml DNAse (Stem Cells) in a 50 mL tube. Next, 40-50 mL IMDM medium is added gently to cells: the medium is added drop by drop along the side of the 50 mL tube for the first 10 mL, and then the remaining volume of medium is slowly dispensed along the side of the tube. The cells are then spun at 900 rpm for 20 min, and the media removed carefully by gentle aspiration. The cells are resuspended in 1 ml of IMDM medium and the cell density per mL is counted on hemacytometer slide (10 μL aliquot of cell suspension on slide, and cell density is the average count×10,000 cells/ml). The cells are then diluted in IMDM medium to a cell density of 15,000 cells/mL. A 100 μL of diluted cells is then added to each 1.5 mL methyl cellulose plus peptide sample (final cell concentration in assay media is 1000 cells/mL), and the mixture is vortexed. Allow the bubbles in the mixture to disappear, and then aspirate 1 mL using blunt-end needle. Add 0.25 mL aspirated mixture from each sample into each of 4 wells of a 24-well plate (Falcon brand). Incubate the plated mixtures at 37° C. under 5% CO2 in a humid incubator for 14 days. Score for the presence of erythroid colonies using a phase microscope (5×-10× objective, final magnification of 100×). The concentration of test peptide at which the number of formed colonies is 90% of maximum, relative to that observed with the EPO positive control, is recorded as the EC90 [See Table 2: C/BFU-e EC90].
For this assay, serial dilutions of test peptide are made in IMDM medium (Gibco) supplemented with 10% FBS (Hyclone). These serial dilutions, or positive control EPO peptide, are then added to methylcellulose to give a final volume of 1.5mL. The methylcellulose and peptide mixture is then vortexed thoroughly. […] The cells are resuspended in 1 ml of IMDM medium and the cell density per mL is counted on hemacytometer slide (10 μL aliquot of cell suspension on slide, and cell density is the average count×10,000 cells/ml). […]

[2] = test system: anti-Peptide I antibodies; assay: Anti-Peptide I antibody assay (ELISA) in patient serum; design: species or system human; settings: 10 patients, after up to 10 doses
Procedure: The anti-Peptide I antibody assay was performed in the laboratories of the Sponsor using an ELISA method, with a sensitivity of 300 ng/mL [Fan Q., et al. (2006) Exp. Hematol. 34: 1303-11; Woodburn K W, et al. (2007) Exp. Hematol. 35: 1201-8]. Anti-EPO antibodies were measured by radioimmune precipitation assay. To confirm that the patient's antibodies were not cross-reactive with Peptide I, serum from three patients was tested in bone marrow cultures (established from healthy human donors, as previously described [Verhelst D, et al. (2004) Lancet 363: 1768-71]). Culture conditions included 20% of either fetal calf serum as a control or one of the study patient's serum. Cultures included either 1 IU/mL of recombinant human EPO or 0.55 μg/mL of Peptide I (a concentration previously shown to be equivalent to 1 IU/mL of EPO for erythroid growth). Erythroid colonies were counted on day 7.

[3] = in vivo; cited from earlier work

EC90 [1]: 3 nM
Substance: PEGylated homodimer of peptide monomers (AcG)GLYACHMGPIT(1-nal)VCQPLR(MeG)K (SEQ ID NO: 2), EPO-R agonist (Ac-GGLYACHMGPIT[1Nal]VCQPLR[Sar]K; disulfide 6-15 (inferred); not fully specified (residue 21); printed as (AcG)GLYACHMGPIT(1-nal)VCQPLR(MeG)K; also: PEGylated) [Peptide I]
anti-Peptide I antibodies in serum [2]: No anti-Peptide I antibodies were detected | clearance times [3]: slow | half-life [3]: prolonged
